From PMC7910587

Biological target: IQGAP1 (Ras GTPase-activating-like protein IQGAP1) (human (endogenous in INT 407)) (UniProt P46940)
Test: co-IP; INT 407 cells non-infected or infected for 45 min with C. jejuni wild-type strain (F38011 or 81-176) or the ∆ciaD mutant; lysis in IP buffer with 50 mM NaCl; IP with mouse anti-IQGAP1 and Protein A/G agarose; immunoblots for RacGAP1, Rac1, Erk 1/2

UniProt P46940, sequence (P46940 whole entry): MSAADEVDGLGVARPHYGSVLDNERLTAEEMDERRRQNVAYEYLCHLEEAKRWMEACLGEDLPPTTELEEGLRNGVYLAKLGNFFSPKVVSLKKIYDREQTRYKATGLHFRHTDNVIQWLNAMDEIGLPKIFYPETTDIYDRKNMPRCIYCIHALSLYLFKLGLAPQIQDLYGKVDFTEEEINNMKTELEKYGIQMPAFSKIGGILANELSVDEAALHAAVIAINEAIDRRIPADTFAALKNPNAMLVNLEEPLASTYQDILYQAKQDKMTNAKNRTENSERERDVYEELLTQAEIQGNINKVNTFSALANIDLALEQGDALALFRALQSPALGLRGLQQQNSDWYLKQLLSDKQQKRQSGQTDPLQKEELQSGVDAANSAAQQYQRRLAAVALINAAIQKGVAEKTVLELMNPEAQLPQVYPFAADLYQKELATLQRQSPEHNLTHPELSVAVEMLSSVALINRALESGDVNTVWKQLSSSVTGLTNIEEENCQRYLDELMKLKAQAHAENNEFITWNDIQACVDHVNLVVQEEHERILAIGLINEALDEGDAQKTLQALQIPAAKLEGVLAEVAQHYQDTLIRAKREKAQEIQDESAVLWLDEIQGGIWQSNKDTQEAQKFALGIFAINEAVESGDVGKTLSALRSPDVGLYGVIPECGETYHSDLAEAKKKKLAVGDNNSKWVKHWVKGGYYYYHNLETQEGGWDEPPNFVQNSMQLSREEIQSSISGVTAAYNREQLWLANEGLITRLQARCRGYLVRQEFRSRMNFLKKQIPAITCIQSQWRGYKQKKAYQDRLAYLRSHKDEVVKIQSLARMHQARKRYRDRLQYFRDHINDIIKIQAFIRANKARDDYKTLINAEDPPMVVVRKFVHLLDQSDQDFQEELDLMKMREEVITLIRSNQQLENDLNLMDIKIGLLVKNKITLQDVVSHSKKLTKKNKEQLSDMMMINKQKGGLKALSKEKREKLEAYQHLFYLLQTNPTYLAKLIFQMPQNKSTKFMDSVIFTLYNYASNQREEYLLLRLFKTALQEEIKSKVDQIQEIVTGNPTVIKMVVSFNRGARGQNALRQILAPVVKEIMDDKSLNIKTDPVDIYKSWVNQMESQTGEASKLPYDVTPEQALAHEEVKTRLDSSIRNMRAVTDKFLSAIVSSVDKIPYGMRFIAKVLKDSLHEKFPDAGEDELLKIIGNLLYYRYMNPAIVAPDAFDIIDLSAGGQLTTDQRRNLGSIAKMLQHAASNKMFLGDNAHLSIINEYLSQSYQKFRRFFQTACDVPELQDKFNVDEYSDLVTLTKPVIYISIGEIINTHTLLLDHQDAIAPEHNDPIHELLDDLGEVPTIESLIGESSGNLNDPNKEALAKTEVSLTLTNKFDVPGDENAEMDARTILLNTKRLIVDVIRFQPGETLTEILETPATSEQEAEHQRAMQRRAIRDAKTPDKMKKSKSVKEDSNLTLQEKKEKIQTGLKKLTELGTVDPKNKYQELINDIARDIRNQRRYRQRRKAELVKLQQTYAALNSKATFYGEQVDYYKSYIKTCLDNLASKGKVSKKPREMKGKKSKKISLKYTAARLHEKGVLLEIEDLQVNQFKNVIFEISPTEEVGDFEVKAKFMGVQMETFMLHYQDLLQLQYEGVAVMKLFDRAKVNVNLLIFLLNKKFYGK

CiaD effector protein of the C. jejuni F38011 wild-type strain (from UniProt Q0PAA2 1-163) (natural protein)
reduction of RacGAP1 in the IQGAP1 complex on infection with the wild-type strain: 50%
